Holding throughout (experiment): SPR, Langmuir fit
In experiment [1] the target is T1, human SIRPγ isoform 1 (human, UniProt Q9P1W8 29-147).
T1 construct: also called SIRPg; sirpg
Summed up: (§1)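 Dissociation rate constants (koff) were measured on a ProteOn XPR36 instrument by Langmuir model fitting. Antibody clones in scFv-Fc format were captured from pre-filtered culture media onto a GLC chip with about 4000 RU of amine-coupled anti-human IgG Fc. SIRP analytes ran in PBS pH 7.4 with 0.01% Tween-20 at 25° C, and the model used was 1:1, applied to data double-referenced against interspot and buffer-blank responses.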

Experiment [2] addresses T2, human SIRP-α v2 D1 domain (human).
T2 construct: also called human v2
Summed up: as §1

Experiment [3] addresses T3, human SIRP-α v1 D1 domain (human, UniProt P78324 31-149).
T3 construct: also called human v1
Put shortly: as §1

The target in experiment [4] is T4, cynomolgus SIRP-α D1 domain (cyno2) (cynomolgus monkey, UniProt Q5TFQ8 30-148 (human entry), limits assumed).
T4 chain: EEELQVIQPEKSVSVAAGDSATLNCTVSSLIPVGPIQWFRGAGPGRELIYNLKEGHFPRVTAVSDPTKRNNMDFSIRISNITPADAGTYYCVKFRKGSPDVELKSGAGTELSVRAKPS
Put shortly:
as §1

For experiment [5], the target named is T5, cynomolgus SIRP-α D1 domain (cyno1) (cynomolgus monkey, UniProt Q5TFQ8 30-148 (human entry), limits assumed).
T5 chain: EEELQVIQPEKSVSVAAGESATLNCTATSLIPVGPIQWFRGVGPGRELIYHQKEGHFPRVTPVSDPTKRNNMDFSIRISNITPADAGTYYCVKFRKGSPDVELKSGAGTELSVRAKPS
Summed up: as §1

Experiment [6] concerns the target T6, human SIRPβ isoform 1 (human, UniProt O00241 30-148).
T6 construct: also called SIRPb; sirpb1
Put shortly: as §1

Experiment [7] has as its target T7, mouse 129 SIRP-α D1 domain (mouse (129 strain), UniProt P97797 32-150).
T7 construct: also called m129
T7 chain: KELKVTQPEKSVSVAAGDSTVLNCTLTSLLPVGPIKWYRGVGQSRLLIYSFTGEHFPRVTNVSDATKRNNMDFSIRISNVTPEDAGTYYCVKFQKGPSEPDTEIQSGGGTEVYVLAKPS
Summed up:
as §1

Experiment [8] has as its target T8, C57BL/6 mouse SIRP-α D1 domain (mouse (C57BL/6 strain), UniProt P97797 32-148).
T8 sequence: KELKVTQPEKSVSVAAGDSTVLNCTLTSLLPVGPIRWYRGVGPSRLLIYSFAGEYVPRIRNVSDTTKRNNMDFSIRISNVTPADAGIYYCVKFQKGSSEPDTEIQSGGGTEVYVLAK
Summed up:
as §1

Experiment [9] addresses T9, high affinity SIRP-α D1 variant CV1-3.
T9 chain: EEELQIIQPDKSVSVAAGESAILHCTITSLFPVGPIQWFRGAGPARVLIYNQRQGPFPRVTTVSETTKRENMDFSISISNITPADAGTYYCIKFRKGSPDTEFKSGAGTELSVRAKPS
Summed up: as §1

The target of experiment [10] is T10, NOD mouse SIRP-α D1 domain (mouse (NOD strain)).
T10 chain: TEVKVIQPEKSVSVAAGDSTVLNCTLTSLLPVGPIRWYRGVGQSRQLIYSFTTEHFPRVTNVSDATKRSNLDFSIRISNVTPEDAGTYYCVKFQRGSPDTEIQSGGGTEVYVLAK
Summed up: as §1

T2 sequence (chain, as listed by the source limits assumed): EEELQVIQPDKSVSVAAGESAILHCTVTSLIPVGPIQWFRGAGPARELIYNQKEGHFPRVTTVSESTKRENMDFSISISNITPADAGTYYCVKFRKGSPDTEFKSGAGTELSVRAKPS
T6 sequence (O00241 30-148 limits assumed): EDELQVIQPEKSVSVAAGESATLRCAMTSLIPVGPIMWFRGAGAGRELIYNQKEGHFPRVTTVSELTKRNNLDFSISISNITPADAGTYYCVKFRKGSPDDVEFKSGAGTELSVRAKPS
T1 sequence (Q9P1W8 29-147 limits assumed): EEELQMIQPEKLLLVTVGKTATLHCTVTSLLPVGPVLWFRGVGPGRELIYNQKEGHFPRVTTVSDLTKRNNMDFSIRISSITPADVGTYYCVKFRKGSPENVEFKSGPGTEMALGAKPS
T3 sequence (P78324 31-149 limits assumed): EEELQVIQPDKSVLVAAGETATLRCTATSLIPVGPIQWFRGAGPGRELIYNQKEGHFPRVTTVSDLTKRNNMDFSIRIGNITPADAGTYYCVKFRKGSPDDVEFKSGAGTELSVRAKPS

B1: S60 (scFv, V domains shown)
VH: DVQLVDSGGGVVRPGESLRLSCAASGFTFSSYAMSWVRQAPGKGLEWLAGISAGGSDTYYIDSVKGRFTISRDNSKNSLYLQMNSLTAEDTAVYYCARETWNHLFDYWGLGTLVTVSS
VL: ALTQPASVSANPGETVKITCSGGDYYSTYYGWYQQKSPGSAPVTVIHSDDKRPSDIPSRFSGSASGSAATLTITGVRVEDEAVYFCGAYDGRTYINTFGAGTTLTVL
notes: also called clone 60
A word on the koff: it is a measure of how fast the partners let go of each other. A lower koff goes with slow dissociation. On to B1, for which the koff in experiment [1] worked out at 0.0001 s⁻¹; in experiment [2], 0.000186 s⁻¹; in [3] it was 0.00014 s⁻¹; in experiment [4] it was 0.000175 s⁻¹; in [5], 0.000192 s⁻¹; in experiment [6] it was 0.000153 s⁻¹. Besides, the off-rate constant (koff) was 0.000221 s⁻¹ in [7], 0.0015 s⁻¹ in experiment [8], 0.000145 s⁻¹ in experiment [9] and 0.000726 s⁻¹ in experiment [10].

B2: S24 (scFv, V domains shown)
VH: DVQLVESGGGVVRPGESLRLSCAASGFTFSSNAMSWVRQAPGKGLEWLAGISAGGSDTYYPASVKGRFTISRDNPKNTLYLQMNTLTAEDTAVYYCARETWNHLFDYWGLGTLVTVSS
VL: ALTQPASVSANPGETVKIACSGGSYYSYYYGWYQQKSPGSALVTVIYSDDKRPSGIPSRFSGSASGSTATLTITGVRAEDEAVYYCGGYDYSSYTNDFGAGTTLTVL
notes: also called clone 24
With B2, the koff was determined as 0.000197 s⁻¹ in experiment [1]; 0.000317 s⁻¹ in experiment [2]; 0.000257 s⁻¹ in experiment [3]; 0.000334 s⁻¹ in experiment [4]; 0.000382 s⁻¹ in experiment [5]; 0.000194 s⁻¹ in [6]. For the same molecule, the koff in experiment [7] was determined as 0.000402 s⁻¹; in experiment [8], 0.00126 s⁻¹; in experiment [9], 0.000216 s⁻¹; in experiment [10] it was 0.00386 s⁻¹.

B3: S69 (scFv, V domains shown)
VH: DLQLVESGGGVVRPGESLRLSCAASGFTFSSYAMSWVRQAPGKGLEWLAGISAGGSDTYYIDSVKGRFTISRDNSKNSLYLQMNSLTAEDTAVYYCARETWNHLFDYWGLGTLVTVSS
VL: ALTQPASVSANPGETVKIICSGGDYYSTYYGWYQQKSPGSAPVTVIHSDDKRPSDIPSRFSGSASGSAATLTITGVRVEDEAVYFCGAYDGRTYINTFGAGTTLTVL
notes: also called clone 69
On to B3, for which the koff was determined as 0.000199 s⁻¹ in experiment [1]; 0.000267 s⁻¹ in experiment [2]; 0.000205 s⁻¹ in [3]; 0.000216 s⁻¹ in [4]; 0.000255 s⁻¹ in experiment [5]; 0.000229 s⁻¹ in experiment [6]. For the same molecule, the koff stood at 0.000246 s⁻¹ in experiment [7], 0.000765 s⁻¹ in experiment [8], 0.000233 s⁻¹ in [9] and 0.000709 s⁻¹ in experiment [10].

B4: S202 (scFv, V domains shown)
VH: DVQLVESGGGVVRPGESLRLSCAASGFTFSSYAMSWVRQAPGKGLEWLAGISAGGSDTYYIDSVKGRFTISRDNSKNSLYLQMNSLTAEDTAVYYCARETWNHLFDYWGLGTLVTVSS
VL: ALTQPASVSANPGETVKITCSGGGYYSTYYGWYQQRSPGSAPVTVIHSDDKRPSDIPSRFSGSASGSAATLTITGVRVEDEAVYYCAGYDGRTYLNTFGAGTTLTVL
B4: the koff turned out to be 4.44e-05 s⁻¹ in [1]; 5.4e-05 s⁻¹ in experiment [2]; 3.75e-05 s⁻¹ in experiment [3]; 0.00012 s⁻¹ in experiment [4]; 0.000113 s⁻¹ in [5]; 0.00205 s⁻¹ in experiment [6]. Further, the koff worked out at 4.58e-05 s⁻¹ in experiment [7], 0.00063 s⁻¹ in experiment [8], 6.86e-05 s⁻¹ in [9] and 0.000509 s⁻¹ in experiment [10].

B5: S71 (scFv, V domains shown)
VH: DVQLVESGGGVVRPGESLRLSCAASGFTFSSYAMSWVRQAPGKGLEWLAGISAGGSDTYYIDSVKGRFTISRDNSKNSLYLQMNSLTAEDTAVYYCARETWNHLFDYWGLGTLVTVSS
VL: ALTQPASVSANPGETVKITCSGGGYYSTYYGWYQQKSPGSAPVTVIHSDDKRPSDIPSRFSGSASGSAATLTITGVRVEDEAVYYCAGYDARTYINTFGAGTTLTVL
notes: also called clone 71
Take B5: the koff came to 0.000316 s⁻¹ in experiment [1]; 0.000403 s⁻¹ in experiment [2]; 0.000335 s⁻¹ in experiment [3]; 0.000313 s⁻¹ in experiment [4]; 0.000364 s⁻¹ in [5]; 0.000388 s⁻¹ in experiment [6]. Besides, the koff in [7] amounted to 0.000417 s⁻¹; in experiment [8], 0.00341 s⁻¹; in experiment [9] it was 0.000379 s⁻¹; in experiment [10] it was 0.00112 s⁻¹.

B6: S66 (scFv, V domains shown)
VH: DVQLVESGGGVVRPGESLRLSCAASGFTFSSYAMSWVRQAPGKGLEWLAGISAGGSDTYYIDSVKGRFTISRDNPKNSLYLQMSSLTAEDTAVYYCARETWNHLFDYWGLGTLVTVSS
VL: ALTQPASVSANPGETVKITCSGGDYYSTYYAWYQQKSPGSAPVTVIHSDDKRPSDIPSRFSGSASGSAATLIITGVRVEDEAVYYCGGYDGRTYINTFGAGTTLTVL
notes: also called clone 66; scFv-Fc form of AB66
For the molecule B6, the koff in experiment [1] came out at 0.000126 s⁻¹; in [2], 0.000206 s⁻¹; in experiment [3] it was 0.000118 s⁻¹; in experiment [4], 0.000255 s⁻¹; in [5] it was 0.00025 s⁻¹; in experiment [6] it was 0.000138 s⁻¹. Besides, the dissociation rate constant (koff) in experiment [7] amounted to 0.000127 s⁻¹; in experiment [8] it was 0.00102 s⁻¹; in experiment [9] it was 0.00011 s⁻¹; in experiment [10], 0.00049 s⁻¹.

B7: S21 (scFv, V domains shown)
VH: DVQLVESGGGVVRPGESLRLSCAASGFTFSSNAMSWVRQAPGKGLEWLAGISAGGSDTYYPASVKGRFTISRDNSKNTLYLQMNTLTAEDTAVYYCARETWNHLFDYWGLGTLVTVSS
VL: ALTQPASVSANPGETVKIACSGGDYYSYYYGWYQQKAPGSALVTVIYSDDKRPSDIPSRFSGSASGSTATLTITGVRAEDEAVYYCGGYDYSTYANAFGAGTTLTVL
notes: also called clone 21; scFv-Fc form of AB21
Consider B7, for which the koff in [1] was found to be 0.000184 s⁻¹; in experiment [2], 0.000207 s⁻¹; in experiment [3] it was 0.00018 s⁻¹; in experiment [4], 0.000252 s⁻¹; in experiment [5], 0.000233 s⁻¹; in [6], 0.00019 s⁻¹. Also, the koff was found to be 0.000281 s⁻¹ in experiment [7], 0.000806 s⁻¹ in experiment [8], 0.000195 s⁻¹ in experiment [9] and 0.00264 s⁻¹ in experiment [10].

B8: S70 (scFv, V domains shown)
VH: DVQLVESGGGVVRPGESLRLSCAASGFTFSSYAMSWVRQAPGKGLEWLAGISAGGSDAYYIDSVKGRFTISRDNSKNSLYLQMNSLTAEDTAVYYCARETWNHLFDYWGLGTLVTVSS
VL: ALTQPASVSANPGETVKITCSGGDWYSTYYGWYQQKSPGSAPVTVIHSDDKRPSDIPSRFSGSASGSAATLTITGVRVEDEAVYYCAGYDGRTYINTFGAGTTLTVL
notes: also called clone 70
Turning to B8, the koff in experiment [1] is 0.000222 s⁻¹; in experiment [2], 0.00029 s⁻¹; in [3], 0.000225 s⁻¹; in experiment [4], 0.000245 s⁻¹; in [5], 0.000296 s⁻¹; in experiment [6], 0.000225 s⁻¹. Besides, the koff came out at 0.00027 s⁻¹ in experiment [7], 0.000987 s⁻¹ in experiment [8], 0.00026 s⁻¹ in [9] and 0.000672 s⁻¹ in experiment [10].

B9: S65 (scFv, V domains shown)
VH: DVQLVESGGGVVRPGESLRLSCAASGFTFSSYAMSWVRQAPGKGLEWLAGISAGGSDTYYIDSVKGRFTISRDNSKNSLYLQMNSLTAEDTAVYYCARETWNHLFDYWGLGTLVTVSS
VL: ALTQPASVSANPGETVKITCSGGDYYSTYYGWYQQKSPGSAPVTVIHSDDKRPSDIPSRFSGSASGSAATLTITGVRVEDEAVYFCGAYDGRTYINTFGAGTTLTVL
notes: also called clone 65
Turning to B9, the koff in experiment [1] came out at 0.000134 s⁻¹; in experiment [2] it was 0.000172 s⁻¹; in experiment [3] it was 0.000145 s⁻¹; in experiment [4], 0.00019 s⁻¹; in experiment [5], 0.000188 s⁻¹; in [6], 0.000154 s⁻¹. In addition, the koff in experiment [7] came to 0.000159 s⁻¹; in experiment [8], 0.000786 s⁻¹; in experiment [9], 0.000147 s⁻¹; in [10], 0.000607 s⁻¹.

The values are drawn from patent US20210363269A1 (ALX ONCOLOGY, published 2021).
